Results: patent publication US20200148778A1
Read-outs that look alike come from different tables or passages of the source.

Tests used:
[1] = target: His-tagged human CD40 (h-CD40-his) recombinant protein (human) (UniProt P25942); assay: Biacore X100, antibody captured by anti-human antibody on CM5 chip, CD40 antigen as analyte, 1:1 model
[2] = target: His-tagged human CD40 (h-CD40-his) recombinant protein (human) (UniProt P25942); assay: as above; remark: listed apart in the source
[3] = target: Fc-tagged human CD40 (h-CD40-Fc) recombinant protein (human) (UniProt P25942); assay: hCD40/hCD40L blocking ELISA, CD40L as competitor
[4] = target: human CD40 on HEK293 cells stably transfected with the human CD40 gene (HEK-Blue CD40L cells) (human) (UniProt P25942); assay: HEK293-CD40 cells binding; method not described
[5] = target: His-tagged human CD40 (h-CD40-his) recombinant protein (human) (UniProt P25942); assay: ELISA, human CD40-his coated
[6] = target: human CD40 on HEK293 cells stably transfected with the human CD40 gene (HEK-Blue CD40L cells) (human) (UniProt P25942); assay: HEK293-CD40 cells binding; method not described; remark: listed apart in the source
[7] = target: Fc-tagged human CD40 (h-CD40-Fc) recombinant protein (human) (UniProt P25942); assay: hCD40/hCD40L blocking ELISA, CD40L as competitor; remark: listed apart in the source
[8] = target: His-tagged human CD40 (h-CD40-his) recombinant protein (human) (UniProt P25942); assay: ELISA, human CD40-his coated; remark: listed apart in the source
[9] = target: His-tagged rhesus CD40 (rhesus-CD40-his) recombinant protein (rhesus) (UniProt F6SNI1); assay: ELISA, rhesus CD40-his coated
Sequence of His-tagged rhesus CD40 (rhesus-CD40-his) recombinant protein (rhesus) (F6SNI1 entry or part of it): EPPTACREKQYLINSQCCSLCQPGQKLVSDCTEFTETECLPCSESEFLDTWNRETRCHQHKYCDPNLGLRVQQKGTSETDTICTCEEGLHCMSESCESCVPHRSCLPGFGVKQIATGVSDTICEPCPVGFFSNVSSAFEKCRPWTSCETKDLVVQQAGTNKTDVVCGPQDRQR

Sequence of His-tagged human CD40 (h-CD40-his) recombinant protein (human) (P25942 21-193 limits assumed): as the sequence (F6SNI1 entry or part of it) above, with S43G, R56H, L89W, M92T, S95A, P101L, L106S, R142H, Q172L counted along it
Sequence of human CD40 on HEK293 cells stably transfected with the human CD40 gene (HEK-Blue CD40L cells) (human) (P25942 21-277): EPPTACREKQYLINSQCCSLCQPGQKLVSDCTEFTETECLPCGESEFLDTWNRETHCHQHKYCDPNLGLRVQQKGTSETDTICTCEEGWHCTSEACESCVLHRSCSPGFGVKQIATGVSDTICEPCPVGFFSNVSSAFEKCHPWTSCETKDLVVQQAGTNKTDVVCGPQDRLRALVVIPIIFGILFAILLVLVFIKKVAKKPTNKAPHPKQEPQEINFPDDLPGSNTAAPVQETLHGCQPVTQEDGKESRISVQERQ
Sequence of Fc-tagged human CD40 (h-CD40-Fc) recombinant protein (human) (P25942 21-193 limits assumed): as the sequence (F6SNI1 entry or part of it) above, with S43G, R56H, L89W, M92T, S95A, P101L, L106S, R142H, Q172L counted along it

B1: Alligator reference (hIgG1) (antibody, INN chains, looked up, V domains shown)
VH: EVQLLESGGGLVQPGGSLRLSCAASGFTFSTYGMHWVRQAPGKGLEWLSYISGGSSYIFYADSVRGRFTISRDNSENALYLQMNSLRAEDTAVYYCARILRGGSGMDLWGQGTLVTVSS
VL: QSVLTQPPSASGTPGQRVTISCTGSSSNIGAGYNVYWYQQLPGTAPKLLIYGNINRPSGVPDRFSGSKSGTSASLAISGLRSEDEADYYCAAWDKSISGLVFGGGTKLTVL
Kd [1]: 0.0659 µM
Kd [2]: 0.166 µM
IC50 [3]: 0.723 mg/L
EC50 [4]: 0.397 mg/L
EC50 [5]: 0.00329 mg/L
EC50 [6]: 1.36 mg/L
IC50 [7]: 0.647 mg/L
EC50 [8]: 0.00129 mg/L
EC50 [9]: 0.00124 mg/L
